# Results as given in patent US20100248359A1 (Chugai, published 2010).
# Substitutions are numbered along the chain they refer to.
# B1: M10D2 (antibody, V domains shown)
# VH: QVQLQQPGAELVKPGASVKLSCKASGYTFTSYWMHWVKQRPGQGLEWIGEIDPSDSYTYYNQKFRGKATLTVDKSSNTAYMQLSSLTSEDSAVYYCSRSNLGDGHYRFPAFPYWGQGTLVTVSA
# VL: DIVLTQSPATLSVTPGDRVSLSCRASHSISNFLHWYPQKSHESPRLLIKYASQSISGIPSRFSGNGSGTDFTLSINSVETEDFGMYFCQQSNIWSLTFGAGTKLELK
# notes: Mouse monoclonal from hybridoma
# B2: M13B3 (antibody, V domains shown)
# VH: EVHLVESGGGLVKPGGSLKLSCAASGFTFSNYAMSWVRQTPEKRLEWVAAINNNGDDTYYLDTVKDRFTISRDNAKNTLYLQMSSLRSEDTALYYCVRQGGAYWGQGTLVTVSA
# VL: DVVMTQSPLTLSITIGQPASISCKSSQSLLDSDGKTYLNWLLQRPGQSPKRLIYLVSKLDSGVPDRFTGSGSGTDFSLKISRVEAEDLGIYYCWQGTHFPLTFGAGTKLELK
# notes: as for B1
# B3: M18D4 (antibody, human IgG1, kappa, V domains shown)
# VH: EVQLQQSGTVLARPGASVKMSCKASGYTFTGYWMRWVKQRPGQGLEWIGAIYPGNSDTTYNQKFKGKAKLTAVTSVSTAYMELSSLTNEDSAVYYCSRSGDLTGGFAYWGQGTLVTVST
# VL: DIVMTQAAFSNPVTLGTSTSISCRSSKSLLHSNGITYLYWYLQKPGQSPQLLIYQMSNLASGVPDRFSSSGSGTDFTLRISRVEAEDVGVYYCAQNLELPYTFGSGTKLEIKR
# notes: as for B1
# B4: M5B9 (antibody, V domains shown)
# VH: B3 VH with R35H, T59N, V76A, S91A, Y95H, S97T, F106L, T119A
# VL: DIVMTQAAFSNPVTLGTSASISCRSSKSLLHSNGITYLYWFLQKPGQSPQLLIYQMSNLASGVPDRFSSSGSGTDFTLRISRVEAEDVGVYYCAQNLELPYTFGSGTKLEIK
# notes: as for B1
# B5: M6B1 (antibody, V domains shown)
# VH: EVQLVESGGDLVKPGGSLKLSCAASGFTFSSYAMSWVRQTPEKRLEWVAAINSNGGTTYYPDTMKDRFTISRDNAKNTLYLQMSSLRSEDSALYYCTRHNGGYENYGWFAYWGQGTLVTVSA
# VL: DIQMTQSPSSLSASLGGKVTITCKASQDINKNIIWYQHKPGKGPRLLIWYTSTLQPGIPSRFSGSGSGRDYSFSISNLEPEDIATYYCLQYDNLPRTFGGGTKLEIK
# notes: as for B1
# B6: GC194 (antibody, V domains shown)
# VH: EVQLVETGGGLVQPKGSLKLSCAASGFTFNASAMNWVRQAPGKGLEWVARIRSKSNNYAIYYADSVKDRFTISRDDSQSMLYLQMNNLKTEDTAMYYCVRDPGYYGNPWFAYWGQGTLVTVSA
# VL: B4 VL with N33Y, G34D, F41Y, Y101P, S105G
# B7: GC33 mouse-human chimeric antibody (antibody, V domains shown)
# VH: QVQLQQSGAELVRPGASVKLSCKASGYTFTDYEMHWVKQTPVHGLKWIGALDPKTGDTAYSQKFKGKATLTADKSSSTAYMELRSLTSEDSAVYYCTRFYSYTYWGQGTLVTVSA
# VL: DVVMTQTPLSLPVSLGDQASISCRSSQSLVHSNGNTYLHWYLQKPGQSPKLLIYKVSNRFSGVPDRFSGSGSGTDFTLKISRVEAEDLGVYFCSQNTHVPPTFGSGTKLEIK
# notes: also called chimeric antibody GC33; mouse/mouse
# B8: humanized GC33 H chain ver.f / L chain ver.a (antibody, V domains shown)
# VH: QVQLVESGAEVKKPGASVKVSCKASGYTFTDYEMHWVRQAPGQGLEWMGALDPKTGDTAYSQKFKGRVTLTADKSTSTAYMELSSLRSEDTAVYYCTRFYSYTYWGQGTLVTVSS
# VL: B7 VL with T7S, S14T, L15P, D17E, Q18P, K50Q, L88V, F92Y, S105Q
# B9: humanized GC33 H chain ver.c / L chain ver.a (antibody, V domains shown)
# VH: B8 VH with K74E
# VL: B7 VL with T7S, S14T, L15P, D17E, Q18P, K50Q, L88V, F92Y, S105Q
# B10: humanized GC33 ver.a/ver.a (antibody, V domains shown)
# VH: B8 VH with L70I, K74E, T97A
# VL: B7 VL with T7S, S14T, L15P, D17E, Q18P, K50Q, L88V, F92Y, S105Q
# notes: Human IgG (HEFg gamma1 vector) and human kappa constant regions
# Biological target: T1, soluble form of GPC3 core protein (human, UniProt P51654 25-563)
# T1 construct: not shown: His tag added to the C-terminus
# Assay: ELISA on plate coated with soluble GPC3 core protein
# Target sequence in this assay (P51654 25-563 S495A/S509A, form in doubt): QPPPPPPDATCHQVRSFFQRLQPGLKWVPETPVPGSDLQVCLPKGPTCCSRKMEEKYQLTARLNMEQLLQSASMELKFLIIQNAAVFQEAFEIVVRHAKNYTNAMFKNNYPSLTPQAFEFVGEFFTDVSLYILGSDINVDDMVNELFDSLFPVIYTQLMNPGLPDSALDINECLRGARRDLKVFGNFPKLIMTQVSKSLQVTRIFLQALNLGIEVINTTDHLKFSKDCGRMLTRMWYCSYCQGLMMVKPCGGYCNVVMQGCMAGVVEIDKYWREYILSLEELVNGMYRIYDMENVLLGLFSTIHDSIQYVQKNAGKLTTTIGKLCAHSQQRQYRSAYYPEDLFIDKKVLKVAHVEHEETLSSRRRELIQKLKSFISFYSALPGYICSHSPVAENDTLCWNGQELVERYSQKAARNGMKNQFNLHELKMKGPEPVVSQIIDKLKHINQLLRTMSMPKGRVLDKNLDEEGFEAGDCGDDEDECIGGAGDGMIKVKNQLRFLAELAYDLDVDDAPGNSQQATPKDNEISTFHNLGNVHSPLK
# Description: (§1) In order to conveniently evaluate the binding activity of the anti-GPC3 antibody thus obtained, concentration-dependent binding of the antibody was detected against an immunoplate containing the soluble form of GPC3 core protein immobilized thereon. A 3-fold dilution series (12 dilutions in total) of the purified antibody at a concentration of 10 μg/mL was added, and an anti-mouse IgG antibody was added as the secondary antibody. […] Since the degree of color development varies depending on the color development time, data measured precisely after 1 hour was analyzed. […] The correlation between the concentration of antibody and the degree of color development was plotted and an approximate curve was obtained by using an analyzing software, GraphPad Prism. Its EC50 value was determined as the index of the binding activity.
row,EC50 [nM],Binder
1,1.04,B1
2,0.25,B2
3,0.85,B3
4,1.13,B4
5,5.51,B5

# Biological target: T1, soluble form of GPC3 core protein
# Assay: competitive ELISA on coated soluble GPC3 core protein; labelled competitor biotin-M18D4;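 also: Biotin-labelled antibody added as 10 µL at 10 µg/mL for 1 h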
# Target sequence in this assay (P51654 25-563 S495A/S509A, form in doubt): as above
# Description: (§2) The obtained antibodies were classified according to the epitopes by a competitive ELISA. The antibodies were biotinylated using a Biotin Labeling Kit (Roche). The soluble form of GPC3 core protein was diluted to 1 μg/mL with the coating buffer and added to a plate at 100 μL/well and stored at 4° C. overnight to coat the plate. On the next day, 200 μL of the substrate buffer was added for blocking. The plate was left at 4° C. overnight or longer and an anti-GPC3 antibody was added to the plate at 100 μL/well and reacted at room temperature for 1 hour. After that, without washing of the plate, 10 μL of 10 μg/mL biotin-labeled anti-GPC3 antibody was added and further reacted for 1 hour. The plate was washed with 300 μL/well of the rinse buffer for 3 times. AP-streptavidin conjugate (ZYMED) was diluted to 1000-fold with the dilution buffer and added at 100 μL/well and reacted at room temperature for 1 hour. The plate was washed with 300 μL/well of the rinse buffer for 5 times.
row,Inhibition of the binding of indicated biotin-Mab to sGPC3 core (%),Binder
1,-21.6,B1
2,2.7,B2
3,89,B3
4,77.3,B4
5,51.9,B5

# Biological target: T2, full-length human GPC3 (human, UniProt P51654 25-554)
# T2 construct: On CHO (DXB11) or SK-HEP-1 (SK-03) transfectants; also used here for the GPC3 on the hepatoma lines HepG2 and HuH-7; also called human glypican 3
# Assay: flow cytometry, antibody at 5 µg/mL, HepG2 cells
# Description: (§3) Cells were dissociated with 1 mM EDTA pH 8.0 (GIBCO)/PBS and suspended in FACS buffer (1% FBS/PBS) at 1×10⁶ cells/mL. The suspension was dispensed to a Multiscreen-HV Filter Plate (Millipore) at 100 μL/well and the supernatant was removed by centrifugation. An anti-GPC3 antibody diluted to an appropriate concentration was added and reacted on ice for 30 minutes. The cells were washed once with FACS buffer and an FITC-labeled anti-mouse IgG antibody was added and reacted on ice for 30 minutes. After the reaction, the cells were centrifuged at 500 rpm for 1 minute, and the supernatant was removed. The cells were suspended in 400 μL of FACS buffer and subjected to flow cytometry. EPICS ELITE ESP (Beckman Coulter) was used as a flow cytometer. A gate was set on the living cell population with the histogram of forward scatter and side scatter.
# T2 sequence (P51654 25-554 limits assumed): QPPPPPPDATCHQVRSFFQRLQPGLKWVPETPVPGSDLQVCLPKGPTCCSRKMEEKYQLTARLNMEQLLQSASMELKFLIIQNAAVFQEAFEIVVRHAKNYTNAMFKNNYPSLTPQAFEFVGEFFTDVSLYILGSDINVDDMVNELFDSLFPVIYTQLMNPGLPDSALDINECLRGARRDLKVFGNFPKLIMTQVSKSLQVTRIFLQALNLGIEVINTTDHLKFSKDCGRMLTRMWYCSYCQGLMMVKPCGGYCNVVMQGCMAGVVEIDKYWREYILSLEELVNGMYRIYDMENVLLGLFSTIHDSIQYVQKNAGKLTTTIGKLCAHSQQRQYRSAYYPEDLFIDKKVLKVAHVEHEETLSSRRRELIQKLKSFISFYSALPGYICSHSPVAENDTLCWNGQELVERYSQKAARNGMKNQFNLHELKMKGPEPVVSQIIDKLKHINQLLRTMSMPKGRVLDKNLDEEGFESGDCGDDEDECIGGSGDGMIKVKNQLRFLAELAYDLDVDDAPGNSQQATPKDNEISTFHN
row,FACS X-mode value of the histogram,Binder
1,7.9,B6

# Biological target: T2, full-length human GPC3
# Assay: flow cytometry, antibody at 5 µg/mL, CHO cells expressing human GPC3 (column CHO/human GPC3)
# Description: as §3
row,FACS X-mode value of the histogram,Binder
1,20,B1
2,22,B3
3,25,B4
4,37,B5

# Biological target: T1, soluble form of GPC3 core protein
# Assay: ELISA on GPC3 (the legend says only GPC3; the filing's ELISA uses plates coated with soluble GPC3 core protein) [upper panel]
# Target sequence in this assay (P51654 25-563 S495A/S509A, form in doubt): as the sequence (P51654 25-563 S495A/S509A, form in doubt) above
row,EC50 (read off the curve) [µg/mL],Binder
1,~0.01,B7
2,~0.01,B8
3,~0.01,B9
4,~0.1,B10

# Biological target: T2, full-length human GPC3
# Assay: flow cytometry, antibody at 5 µg/mL, HepG2 cells
# Remark: another data set of the same source
# Description: as §3
row,FACS X-mode value of the histogram,Binder
1,29,B1
2,20,B3
3,23,B4
4,34,B5

# Biological target: T1, soluble form of GPC3 core protein
# Assay: competitive ELISA on coated soluble GPC3 core protein; labelled competitor biotin-L9G11;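 also: Biotin-labelled antibody added as 10 µL at 10 µg/mL for 1 h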
# Description: as §2
row,Inhibition of the binding of indicated biotin-Mab to sGPC3 core (%),Binder
1,7.2,B1
2,24.9,B2
3,6.7,B3
4,10.3,B4
5,1.1,B5

# Biological target: T1, soluble form of GPC3 core protein
# Assay: competitive ELISA on coated soluble GPC3 core protein; labelled competitor biotin-M10D2;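 also: Biotin-labelled antibody added as 10 µL at 10 µg/mL for 1 h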
# Target sequence in this assay (P51654 25-563 S495A/S509A, form in doubt): as above
# Description: (§4) The antibodies were biotinylated using a Biotin Labeling Kit (Roche). The soluble form of GPC3 core protein was diluted to 1 μg/mL with the coating buffer and added to a plate at 100 μL/well and stored at 4° C. overnight to coat the plate. On the next day, 200 μL of the substrate buffer was added for blocking. The plate was left at 4° C. overnight or longer and an anti-GPC3 antibody was added to the plate at 100 μL/well and reacted at room temperature for 1 hour. After that, without washing of the plate, 10 μL of 10 μg/mL biotin-labeled anti-GPC3 antibody was added and further reacted for 1 hour. The plate was washed with 300 μL/well of the rinse buffer for 3 times. AP-streptavidin conjugate (ZYMED) was diluted to 1000-fold with the dilution buffer and added at 100 μL/well and reacted at room temperature for 1 hour. The plate was washed with 300 μL/well of the rinse buffer for 5 times.
row,Inhibition of the binding of indicated biotin-Mab to sGPC3 core (%),Binder
1,79.2,B1
2,22.3,B2
3,19.1,B3
4,13.4,B4
5,6.7,B5

# Biological target: T1, soluble form of GPC3 core protein
# Assay: competitive ELISA on coated soluble GPC3 core protein; labelled competitor biotin-M6B1;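 also: Biotin-labelled antibody added as 10 µL at 10 µg/mL for 1 h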
# Target sequence in this assay (P51654 25-563 S495A/S509A, form in doubt): as above
# Description: as §4
row,Inhibition of the binding of indicated biotin-Mab to sGPC3 core (%),Binder
1,-5.9,B1
2,9.3,B2
3,38.6,B3
4,23.2,B4
5,85.6,B5

# Biological target: T1, soluble form of GPC3 core protein
# Assay: competitive ELISA on coated soluble GPC3 core protein; labelled competitor biotin-M1E7;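 also: Biotin-labelled antibody added as 10 µL at 10 µg/mL for 1 h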
# Target sequence in this assay (P51654 25-563 S495A/S509A, form in doubt): as above
# Description: as §4
row,Inhibition of the binding of indicated biotin-Mab to sGPC3 core (%),Binder
1,0.6,B1
2,95.7,B2
3,0.5,B3
4,2.7,B4
5,-2.7,B5

# Biological target: T1, soluble form of GPC3 core protein
# Assay: competitive ELISA on coated soluble GPC3 core protein; labelled competitor biotin-M11F1;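 also: Biotin-labelled antibody added as 10 µL at 10 µg/mL for 1 h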
# Description: as §4
row,Inhibition of the binding of indicated biotin-Mab to sGPC3 core (%),Binder
1,7.8,B1
2,15.6,B2
3,-0.3,B3
4,5.3,B4
5,13.9,B5

# Biological target: T2, full-length human GPC3
# Assay: BIACORE; the form of GPC3 used is not given
Kd [nM],koff [s⁻¹],kon [M⁻¹ s⁻¹],Binder
4.7,0.000496,110000,B1
6.2,0.000496,80000,B3
23.5,0.00139,60000,B4

# Biological target: T1, soluble form of GPC3 core protein
# Assay: competitive ELISA on coated soluble GPC3 core protein; labelled competitor biotin-M5B9;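 also: Biotin-labelled antibody added as 10 µL at 10 µg/mL for 1 h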
# Description: as §4
row,Inhibition of the binding of indicated biotin-Mab to sGPC3 core (%),Binder
1,-10.3,B1
2,-1.8,B2
3,89.4,B3
4,77.3,B4
5,44.4,B5

# Biological target: T1, soluble form of GPC3 core protein
# Assay: ELISA on plate coated with soluble GPC3 core protein
# Remark: another data set of the same source
# Description: as §1
# The antibody was purified from the culture supernatant of the hybridoma using Hi Trap proteinG HP, and analyzed in accordance with the above-mentioned method.
row,EC50 [nM],Binder
1,3.83,B6

# Biological target: T1, soluble form of GPC3 core protein
# Assay: competitive ELISA on coated soluble GPC3 core protein; labelled competitor biotin-M3C11;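 also: Biotin-labelled antibody added as 10 µL at 10 µg/mL for 1 h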
# Description: as §2
row,Inhibition of the binding of indicated biotin-Mab to sGPC3 core (%),Binder
1,-7.7,B1
2,71.3,B2
3,0.2,B3
4,0.1,B4
5,-5.7,B5

# Biological target: T2, full-length human GPC3
# Assay: flow cytometry, antibody at 5 µg/mL, HuH-7 cells
# Description: as §3
row,FACS X-mode value of the histogram,Binder
1,3,B1
2,2,B3
3,2,B4
4,3,B5

# Biological target: T2, full-length human GPC3
# Assay: flow cytometry, antibody at 5 µg/mL, CHO cells expressing human GPC3 (column CHO/human GPC3)
# Remark: another data set of the same source
# Description: as §3
row,FACS X-mode value of the histogram,Binder
1,5,B6

# Biological target: T2, full-length human GPC3
# Assay: flow cytometry, antibody at 5 µg/mL, HuH-7 cells
# Remark: another data set of the same source
# Description: as §3
row,FACS X-mode value of the histogram,Binder
1,1.5,B6
